Reference: doi:10.1101/773556
Read-outs that look alike come from different tables or passages of the source.

How the values were obtained:
Assay in all cases: ITC
[1] = molecular target: EF-Tu methyltransferase EftM from P. aeruginosa strain PAHM4 (EftM^HM4), wild-type (Pseudomonas aeruginosa strain PAHM4)
[2] = molecular target: EftM^HM4 W196F (Pseudomonas aeruginosa strain PAHM4)
[3] = molecular target: EftM^HM4 W170F (Pseudomonas aeruginosa strain PAHM4)
[4] = molecular target: EF-Tu methyltransferase EftM from P. aeruginosa strain PAHM4 (EftM^HM4), wild-type (Pseudomonas aeruginosa strain PAHM4); remark: listed apart in the source

Substance: translation elongation factor EF-Tu of P. aeruginosa PAO1 (tufB), wild-type (from UniProt P09591 1-397) (natural protein)
- Kd [1]: 28 µM
- fold decrease of dH against wild-type EftM^HM4 [2]: > 10 fold
- fold decrease of dH against wild-type EftM^HM4 [3]: > 10 fold
- Kd [4]: 27 µM
